# Measured values from the Human Domainome abundance scans (Beltran et al. 2025).
# ± gives the uncertainty stated by the source.
# B1: SH3 and PX domain-containing protein 2B, residues 155 to 209; numbered along this chain, A1X283 (parent)
# chain: EQYVVVANYQKQESSEISLSVGQVVDIIEKNESGWWFVSTAEEQGWVPATCLEGQ
# B2: WW domain-containing transcription regulator protein 1, residues 116 to 162; numbered along this chain, Q9GZV5 (parent)
# chain: QSYDVTDELPLPPGWEMTFTATGQRYFLNHIEKITTWQDPRKAMNQP
# Variants of: B1
# Test: abundance fitness (aPCA) (normalised: wild type 0, dead -1); higher = more abundant; growth selection in yeast, the domain comes from the species named
# Conditions: Homo sapiens
row,Variant,abundance fitness
1,ELYVVVANYQKQESSEISLSVGQVVDIIEKNESGWWFVSTAEEQGWVPATCLEGQ,-0.189 ± 0.087
2,EFYVVVANYQKQESSEISLSVGQVVDIIEKNESGWWFVSTAEEQGWVPATCLEGQ,-0.185 ± 0.47
3,EPYVVVANYQKQESSEISLSVGQVVDIIEKNESGWWFVSTAEEQGWVPATCLEGQ,-0.068 ± 0.12
4,ECYVVVANYQKQESSEISLSVGQVVDIIEKNESGWWFVSTAEEQGWVPATCLEGQ,-0.086 ± 0.14
5,ERYVVVANYQKQESSEISLSVGQVVDIIEKNESGWWFVSTAEEQGWVPATCLEGQ,-0.167 ± 0.12
6,EVYVVVANYQKQESSEISLSVGQVVDIIEKNESGWWFVSTAEEQGWVPATCLEGQ,0.012 ± 0.11
7,ETYVVVANYQKQESSEISLSVGQVVDIIEKNESGWWFVSTAEEQGWVPATCLEGQ,-0.148 ± 0.12
8,EIYVVVANYQKQESSEISLSVGQVVDIIEKNESGWWFVSTAEEQGWVPATCLEGQ,-0.347 ± 0.29
9,ENYVVVANYQKQESSEISLSVGQVVDIIEKNESGWWFVSTAEEQGWVPATCLEGQ,0.13 ± 0.25
10,EGYVVVANYQKQESSEISLSVGQVVDIIEKNESGWWFVSTAEEQGWVPATCLEGQ,-0.082 ± 0.081
11,EAYVVVANYQKQESSEISLSVGQVVDIIEKNESGWWFVSTAEEQGWVPATCLEGQ,-0.247 ± 0.11
12,EKYVVVANYQKQESSEISLSVGQVVDIIEKNESGWWFVSTAEEQGWVPATCLEGQ,-0.062 ± 0.16
13,EWYVVVANYQKQESSEISLSVGQVVDIIEKNESGWWFVSTAEEQGWVPATCLEGQ,-0.415 ± 0.1
14,ESYVVVANYQKQESSEISLSVGQVVDIIEKNESGWWFVSTAEEQGWVPATCLEGQ,-0.058 ± 0.11
15,EDYVVVANYQKQESSEISLSVGQVVDIIEKNESGWWFVSTAEEQGWVPATCLEGQ,-0.378 ± 0.18
16,EEYVVVANYQKQESSEISLSVGQVVDIIEKNESGWWFVSTAEEQGWVPATCLEGQ,-0.328 ± 0.37
17,EHYVVVANYQKQESSEISLSVGQVVDIIEKNESGWWFVSTAEEQGWVPATCLEGQ,-0.178 ± 0.35
18,EYYVVVANYQKQESSEISLSVGQVVDIIEKNESGWWFVSTAEEQGWVPATCLEGQ,-0.29 ± 0.39
19,EQRVVVANYQKQESSEISLSVGQVVDIIEKNESGWWFVSTAEEQGWVPATCLEGQ,-0.127 ± 0.067

row,Variant,abundance fitness
1,EQPVVVANYQKQESSEISLSVGQVVDIIEKNESGWWFVSTAEEQGWVPATCLEGQ,-0.585 ± 0.18
2,EQSVVVANYQKQESSEISLSVGQVVDIIEKNESGWWFVSTAEEQGWVPATCLEGQ,0.039 ± 0.093
3,EQKVVVANYQKQESSEISLSVGQVVDIIEKNESGWWFVSTAEEQGWVPATCLEGQ,-0.035 ± 0.15
4,EQFVVVANYQKQESSEISLSVGQVVDIIEKNESGWWFVSTAEEQGWVPATCLEGQ,-0.053 ± 0.13
5,EQAVVVANYQKQESSEISLSVGQVVDIIEKNESGWWFVSTAEEQGWVPATCLEGQ,0.106 ± 0.095
6,EQQVVVANYQKQESSEISLSVGQVVDIIEKNESGWWFVSTAEEQGWVPATCLEGQ,-0.17 ± 0.13
7,EQCVVVANYQKQESSEISLSVGQVVDIIEKNESGWWFVSTAEEQGWVPATCLEGQ,-0.349 ± 0.14
8,EQGVVVANYQKQESSEISLSVGQVVDIIEKNESGWWFVSTAEEQGWVPATCLEGQ,0.003 ± 0.074
9,EQDVVVANYQKQESSEISLSVGQVVDIIEKNESGWWFVSTAEEQGWVPATCLEGQ,-0.162 ± 0.2
10,EQTVVVANYQKQESSEISLSVGQVVDIIEKNESGWWFVSTAEEQGWVPATCLEGQ,-0.06 ± 0.11
11,EQLVVVANYQKQESSEISLSVGQVVDIIEKNESGWWFVSTAEEQGWVPATCLEGQ,-0.237 ± 0.077
12,EQHVVVANYQKQESSEISLSVGQVVDIIEKNESGWWFVSTAEEQGWVPATCLEGQ,-0.537 ± 0.17
13,EQVVVVANYQKQESSEISLSVGQVVDIIEKNESGWWFVSTAEEQGWVPATCLEGQ,-0.073 ± 0.081
14,EQWVVVANYQKQESSEISLSVGQVVDIIEKNESGWWFVSTAEEQGWVPATCLEGQ,-0.324 ± 0.12
15,EQIVVVANYQKQESSEISLSVGQVVDIIEKNESGWWFVSTAEEQGWVPATCLEGQ,-0.175 ± 0.13
16,EQNVVVANYQKQESSEISLSVGQVVDIIEKNESGWWFVSTAEEQGWVPATCLEGQ,-0.268 ± 0.13
17,EQEVVVANYQKQESSEISLSVGQVVDIIEKNESGWWFVSTAEEQGWVPATCLEGQ,-0.114 ± 0.15
18,EQYLVVANYQKQESSEISLSVGQVVDIIEKNESGWWFVSTAEEQGWVPATCLEGQ,0.075 ± 0.065
19,EQYHVVANYQKQESSEISLSVGQVVDIIEKNESGWWFVSTAEEQGWVPATCLEGQ,-0.308 ± 0.15

row,Variant,abundance fitness
1,EQYGVVANYQKQESSEISLSVGQVVDIIEKNESGWWFVSTAEEQGWVPATCLEGQ,-0.265 ± 0.076
2,EQYIVVANYQKQESSEISLSVGQVVDIIEKNESGWWFVSTAEEQGWVPATCLEGQ,0.082 ± 0.13
3,EQYDVVANYQKQESSEISLSVGQVVDIIEKNESGWWFVSTAEEQGWVPATCLEGQ,-0.148 ± 0.1
4,EQYMVVANYQKQESSEISLSVGQVVDIIEKNESGWWFVSTAEEQGWVPATCLEGQ,-0.463 ± 0.26
5,EQYEVVANYQKQESSEISLSVGQVVDIIEKNESGWWFVSTAEEQGWVPATCLEGQ,0.003 ± 0.099
6,EQYAVVANYQKQESSEISLSVGQVVDIIEKNESGWWFVSTAEEQGWVPATCLEGQ,-0.047 ± 0.082
7,EQYFVVANYQKQESSEISLSVGQVVDIIEKNESGWWFVSTAEEQGWVPATCLEGQ,-0.061 ± 0.1
8,EQYCVVANYQKQESSEISLSVGQVVDIIEKNESGWWFVSTAEEQGWVPATCLEGQ,-0.01 ± 0.13
9,GQYVVVANYQKQESSEISLSVGQVVDIIEKNESGWWFVSTAEEQGWVPATCLEGQ,-0.315 ± 0.098
10,MQYVVVANYQKQESSEISLSVGQVVDIIEKNESGWWFVSTAEEQGWVPATCLEGQ,-0.329 ± 0.24
11,SQYVVVANYQKQESSEISLSVGQVVDIIEKNESGWWFVSTAEEQGWVPATCLEGQ,-0.177 ± 0.31
12,VQYVVVANYQKQESSEISLSVGQVVDIIEKNESGWWFVSTAEEQGWVPATCLEGQ,-0.035 ± 0.076
13,LQYVVVANYQKQESSEISLSVGQVVDIIEKNESGWWFVSTAEEQGWVPATCLEGQ,-0.001 ± 0.14
14,KQYVVVANYQKQESSEISLSVGQVVDIIEKNESGWWFVSTAEEQGWVPATCLEGQ,0.042 ± 0.16
15,IQYVVVANYQKQESSEISLSVGQVVDIIEKNESGWWFVSTAEEQGWVPATCLEGQ,-0.299 ± 0.33
16,RQYVVVANYQKQESSEISLSVGQVVDIIEKNESGWWFVSTAEEQGWVPATCLEGQ,-0.469 ± 0.19
17,AQYVVVANYQKQESSEISLSVGQVVDIIEKNESGWWFVSTAEEQGWVPATCLEGQ,-0.364 ± 0.17
18,DQYVVVANYQKQESSEISLSVGQVVDIIEKNESGWWFVSTAEEQGWVPATCLEGQ,-0.108 ± 0.14

# Variants of: B2
# Test: as above
# Conditions: Homo sapiens
row,Variant,abundance fitness
1,A43W,0.086 ± 0.048
2,A43Q,-0.056 ± 0.051
3,A43E,-0.018 ± 0.036
4,A43I,-0.073 ± 0.067
5,A43C,-0.056 ± 0.035
6,A43N,0.046 ± 0.056
7,A43L,-0.008 ± 0.037
8,A43S,0.01 ± 0.04
9,A43Y,-0.127 ± 0.044
10,A43D,0.071 ± 0.048
11,A43F,-0.016 ± 0.054
12,A43K,-0.006 ± 0.061
13,A43T,0.027 ± 0.045
14,A43V,-0.025 ± 0.039
15,A43M,-0.038 ± 0.059
16,A43P,-0.014 ± 0.031
17,A43G,-0.013 ± 0.031
18,K42L,-0.111 ± 0.034
19,K42W,-0.304 ± 0.053
20,K42S,-0.203 ± 0.035
21,K42F,-0.128 ± 0.061

row,Variant,abundance fitness
1,K42Q,-0.105 ± 0.054
2,K42I,-0.038 ± 0.036
3,K42V,-0.166 ± 0.045
4,K42C,-0.097 ± 0.048
5,K42Y,-0.164 ± 0.037
6,K42T,-0.073 ± 0.042
7,K42G,-0.141 ± 0.036
8,K42D,-0.26 ± 0.061
9,K42A,-0.113 ± 0.03
10,K42R,-0.111 ± 0.04
11,K42P,-0.161 ± 0.033
12,K42E,-0.052 ± 0.044
13,K42H,-0.061 ± 0.057
14,K42N,0.045 ± 0.05
15,K42M,-0.202 ± 0.051
16,M44W,-0.15 ± 0.046
17,M44E,0.03 ± 0.026
18,M44A,0.005 ± 0.036
19,M44K,-0.033 ± 0.054
20,M44R,-0.06 ± 0.032
